Consider 10 molecules from patent US20260109761A1 (IP2IPO INNOVATIONS, published 2026).

Assay [1] has as its target T1, huZIP12-ECD-GST (human, UniProt Q504Y0 24-202).
T1 construct: also called hZIP12-ECD-GST; human ZIP12-ECD-GST; not shown: glutathione S-transferase (GST) tag
The experiment in a line: SPR single cycle kinetics, 2.34-600 nM huZIP12-ECD-GST, extended dissociation; re-test, lower concentrations, extended dissociation. The protocol: (§1) Single Cycle Kinetics (SCK) involves first capturing the mAb onto the protein A sensor surface and then sequentially injecting a series of concentrations of huZIP12-ECD-GST over the surface starting at the lowest concentration and ending with the highest concentration. The final concentration is followed by a dissociation phase where buffer only is passed across the surface followed by regeneration, where the remaining bound huZIP12-ECD-GST is removed from the surface by injection of a 10 mM Glycine pH 1.5 and 50 mM NaOH solution. The SCK is repeated for each monoclonal antibody providing duplicate data and the kinetics of each interaction is evaluated by the Biacore software.
(§2) A selection of the higher affinity antibody variants were re-tested at a lower concentration series with an extended dissociation time with the objective of obtaining a better assessment of the binding kinetics. Referring now to FIG. 7, there are shown the data for the monoclonal antibodies that were re-tested to optimise the binding kinetic data. Once again, three antibody variants, H3_W99H_L1, H3_W99HL2 and H3_W99H_VL-par, all appear to have a higher affinity than the parent antibody. The on-rate (ka), off-rate (kd) and overall affinity measurement (KD) are all improved compared to the 51B12 VH_VL_par parent antibody.

In assay [2] the target is T1, huZIP12-ECD-GST. The assay is described as follows: SPR single cycle kinetics (Biacore): mAb captured on protein A, huZIP12-ECD-GST injected; mean±SD of the control runs. As to the method: as §1
A general note: Surface plasmon resonance follows binding to a sensor surface in real time, without labels.

The target in assay [3] is T1, huZIP12-ECD-GST. The experiment in a line: SPR single cycle kinetics (Biacore): mAb captured on protein A, huZIP12-ECD-GST injected at 2.34-600 nM, extended dissociation. The protocol: as §1, §2
Assay [4] deals with T1, huZIP12-ECD-GST. The experiment in a line: HTRF competition: unlabelled antibody against Tb-labelled 51B12-parent on hZIP12-ECD-GST, detected with anti-GST-XL665. The protocol: Homogeneous Time Resolved Fluorescence (HTRF) assays were used to analyse the antibodies. A checkerboard assay was performed to validate the binding of the terbium labeled-antibody with hZIP12-ECD-GST. Serial dilutions (starting at 1000 ng/ml, semi-log dilutions) of Terbium-labeled 51B12-parent were incubated with serial dilutions of hZIP12-ECD-GST (starting at 5000 ng/ml, semi-log dilutions) followed by incubation with anti-GST-XL665. After excitation (320 nm), emission signals were obtained and HTRF ratio was calculated (665 nm/615 nm, Panel A). Signal/background ratios (S/B) were calculated from the HTRF ratios (0 ng/ml hZIP12-ECD-GST as background signal) and plotted against the Tb-51B12-parent concentration. The combinations 500 ng/ml hZIP12-ECD-GST+50 ng Tb-Ab, 150 ng/ml hZIP12-ECD-GST+50 ng Tb-Ab and 50 ng/ml hZIP12-ECD-GST+50 ng Tb-Ab were chosen as range for the competition assay. For the HTRF assay, 150 ng/ml hZIP12-ECD-GST+30 ng/ml Tb-51B12 was selected.
For orientation: Time-resolved FRET reads energy transfer from a long-lived donor to a nearby acceptor.

Assay [5] has as its target T1, huZIP12-ECD-GST. The assay is described as follows: SPR single cycle kinetics (Biacore): mAb captured on protein A, huZIP12-ECD-GST injected at 3.12-800 nM. The protocol: as §1
(§3) Referring to FIG. 6, there are shown the kinetic parameters obtained for all antibody variants when screened with the 3.12 nM to 800 nM huZIP12-ECD-GST. […] Affinity.

The target of assay [6] is T1, huZIP12-ECD-GST. The experiment in a line: SPR single cycle kinetics, mAb captured on protein A, 3.12-800 nM huZIP12-ECD-GST. The protocol: as §1, §3

Residue numbers refer to the chain shown, from its start.

T1 sequence (Q504Y0 24-202): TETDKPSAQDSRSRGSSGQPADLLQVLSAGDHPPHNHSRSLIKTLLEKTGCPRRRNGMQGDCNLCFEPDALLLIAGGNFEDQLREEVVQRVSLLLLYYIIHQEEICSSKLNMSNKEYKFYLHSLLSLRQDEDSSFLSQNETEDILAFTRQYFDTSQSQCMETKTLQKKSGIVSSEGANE

B1: 51B12 parent (antibody, V domains shown)
VH: QVQLVESGGGVVQPGRSLRLSCAASGFTFSDYGMHWVRQAPGKGLEWVAYISSGGTTIYYADTVKGRFTISRDNSKNTLYLQMNSLRAEDTAVYYCARWTNLYAMDYWGQGTTVTVSS
VL: DIVLTQSPDSLAVSLGERATINCRASKSVSTSGYSYMHWYQQKPGQPPKFLIYLASNLESGVPDRFSGSGSGTDFTLTISSLQAEDVAVYYCQHSREVPYTFGGGTKVEIKR
notes: Fc null human IgG1 / human kappa
For the molecule B1, the Kd in assay [1] came out at 1.1 nM. In assay [2], this molecule showed a Kd of 0.969 nM and a koff of 2.66e-05 s⁻¹. In assay [3], this molecule had a dissociation constant (Kd) of 1.09 nM, an off-rate constant (koff) of 3e-05 s⁻¹ and a kon of 27500 M⁻¹ s⁻¹. Besides, the “IC50 (read off the curve)” value in assay [4] was about 0.2 µg/mL.

B2: H2_T56H_VL-par (antibody, V domains shown)
VH: B1 VH with T56H
VL: B1 VL
notes: as for B1
In assay [5], B2 returned a Kd of 1.29 nM, a koff of 3.38e-05 s⁻¹ and a kon of 26200 M⁻¹ s⁻¹. In assay [3], this molecule gave a Kd of 0.591 nM, a koff of 1.51e-05 s⁻¹ and a kon of 25600 M⁻¹ s⁻¹.

B3: H3_W99H_L2 (antibody, V domains shown)
VH: B1 VH with W99H
VL: B1 VL with L58K
notes: as for B1
In the case of B3, the Kd in assay [5] is 0.472 nM; in assay [6], about 0.5 nM; in assay [3], 0.339 nM. In addition, the figures for the koff in assay [5] and in assay [3] were 3.98e-05 s⁻¹ and 3.16e-05 s⁻¹, respectively. Further, the kon in assay [5] amounted to 84300 M⁻¹ s⁻¹; in assay [3], 93100 M⁻¹ s⁻¹.

B4: H2_Y60K_VL-par (antibody, V domains shown)
VH: B1 VH with Y60K
VL: B1 VL
notes: as for B1
B4: in assay [5], the Kd came out at 1.09 nM, the koff came to 4.01e-05 s⁻¹ and the kon was 36700 M⁻¹ s⁻¹. For the same molecule, in assay [3], the Kd came to 0.829 nM, the off-rate constant (koff) was 3.26e-05 s⁻¹ and the kon came to 39400 M⁻¹ s⁻¹.

B5: H2_T57H_VL-par (antibody, V domains shown)
VH: B1 VH with T57H
VL: B1 VL
notes: as for B1
Consider B5, for which, in assay [5], the Kd is 0.791 nM, the koff turned out to be 3.47e-05 s⁻¹ and the kon worked out at 43900 M⁻¹ s⁻¹. In assay [3], this molecule registered an equilibrium dissociation constant (Kd) of 0.792 nM, a koff of 3.3e-05 s⁻¹ and a kon of 41600 M⁻¹ s⁻¹.

B6: H2_T57H_L1 (antibody, V domains shown)
VH: B1 VH with T57H
VL: B1 VL with S32Q
notes: as for B1
Consider B6, for which, in assay [5], the Kd was determined as 0.743 nM, the koff turned out to be 3.3e-05 s⁻¹ and the on-rate constant (kon) worked out at 44400 M⁻¹ s⁻¹. Moreover, in assay [3], the equilibrium dissociation constant (Kd) is 0.971 nM, the koff turned out to be 4.18e-05 s⁻¹ and the kon turned out to be 43100 M⁻¹ s⁻¹.

B7: H2_T63Y_VL-par (antibody, V domains shown)
VH: B1 VH with T63Y
VL: B1 VL
notes: as for B1
For the molecule B7, in assay [5], binding was characterised by a dissociation constant (Kd) of 1.03 nM, the koff was 3.04e-05 s⁻¹ and the kon is 29600 M⁻¹ s⁻¹. Also, in assay [3], the Kd amounted to 0.868 nM, the koff is 2.51e-05 s⁻¹ and the kon was determined as 28900 M⁻¹ s⁻¹.

B8: H2_Y60K_L1 (antibody, V domains shown)
VH: B1 VH with Y60K
VL: B1 VL with S32Q
notes: as for B1
In assay [5], B8 showed a Kd of 0.957 nM, a dissociation rate constant (koff) of 3.7e-05 s⁻¹ and a kon of 38600 M⁻¹ s⁻¹. In assay [3], this molecule returned a Kd of 0.604 nM, a koff of 2.25e-05 s⁻¹ and an on-rate (kon) of 37200 M⁻¹ s⁻¹.

B9: H3_W99H_VL-par (antibody, V domains shown)
VH: B1 VH with W99H
VL: B1 VL
notes: as for B1
In assay [5], B9 had a Kd of 0.481 nM, a koff of 4.67e-05 s⁻¹ and a kon of 97100 M⁻¹ s⁻¹. For the same molecule, the Kd in assay [6] is about 0.5 nM. In assay [3], the affinity, expressed as Kd, was 0.322 nM; the off-rate constant (koff) turned out to be 3.29e-05 s⁻¹; the kon was determined as 102000 M⁻¹ s⁻¹.

B10: H2_T63Y_L1 (antibody, V domains shown)
VH: B1 VH with T63Y
VL: B1 VL with S32Q
notes: as for B1
In assay [5], B10 yielded a Kd of 1.07 nM, a koff of 3.16e-05 s⁻¹ and a kon of 29600 M⁻¹ s⁻¹. In addition, in assay [3], the equilibrium dissociation constant (Kd) turned out to be 1.34 nM, the off-rate (koff) is 3.68e-05 s⁻¹ and the kon turned out to be 27500 M⁻¹ s⁻¹.

As usually defined, the Kd is the constant that tells how readily two partners part at equilibrium. A higher Kd goes with weaker binding. The koff is the first-order rate constant of dissociation. In general, kon refers to the second-order rate constant of association. Read a low kon as slower complex formation.
